Results on two molecules are retold here after publication PMC13036491, “RNA binding protein Musashi1 interacts with the viral genomic RNA and restricts SARS-CoV-2 infection by repressing translation”.

This data set concerns the target GST-Msi1 (Homo sapiens, UniProt O43347 1-362). Kind of data set: EMSA. Particulars: protein: recombinant; tags: N-terminal GST (pGEX 5X-2); label: fluorescein-12-UTP. In general terms: In EMSA bound probe runs differently from free probe, usually more slowly.

GST-Msi1, sequence (O43347 whole entry): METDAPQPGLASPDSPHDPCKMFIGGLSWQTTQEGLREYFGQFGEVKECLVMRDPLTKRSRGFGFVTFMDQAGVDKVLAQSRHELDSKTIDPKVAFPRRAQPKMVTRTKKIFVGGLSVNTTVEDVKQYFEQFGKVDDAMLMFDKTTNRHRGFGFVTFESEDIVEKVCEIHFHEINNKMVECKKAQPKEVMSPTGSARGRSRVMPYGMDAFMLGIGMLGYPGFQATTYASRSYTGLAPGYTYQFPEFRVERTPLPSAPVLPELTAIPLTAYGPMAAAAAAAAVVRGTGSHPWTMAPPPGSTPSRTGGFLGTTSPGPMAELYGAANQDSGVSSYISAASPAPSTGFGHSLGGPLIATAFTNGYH

Regarding GGGAUUUUAGCCGUGCUAUCCCCA (ssRNA) [M2 mutant RNA], the binding result is “no binding”.
For GGGUAGCACAAGCCGAUGCCGUUAA (ssRNA) [M1 mutant RNA] the value was “no binding”.
